Measured values taken from the supplement of paper PMC10126150.
± gives the standard deviation of the averaged measurements.

System: ATP
Experiment: switch fluorescence ratio, 500 uM ATP over buffer (Cy3 cluster intensity, sum of 5 cycles each) (fold (ratio)); higher = stronger signal-on switching upon ATP binding; sequences stand for … in TCGTCGGCAGCGTCAGATGTGTATAAGAGACAGTTTTTTTTTTTTTTTTTTTTTTTTT…TC
Conditions: aptamer strand: ATP DNA aptamer (quencher-CACCTGGGGGAGTATTGCGGAGGAAGG + anchor), 100 nM annealed; ATP concentration: 500 uM
Summary of the method: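 Between each of five buffer/ATP cycles, the flow-cell was stripped with NaOH and re-annealed. Each cycle imaged Cy3-labelled switching-strand clusters, annealed to 100 nM quencher-labelled ATP aptamer on a modified Illumina MiSeq flow-cell, first in selection buffer and then after 15 min with 500 uM ATP at 22 °C. The fluorescence ratio is summed target-cycle over summed buffer-cycle Cy3 intensity per cluster, averaged per switch-domain sequence, with clusters outside 100-1000 RFU excluded.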
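Further: ATP exposure 15 min at 22 °C before imaging.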

Sequence	switch fluorescence ratio
TAGTGAATTT	1 ± 0.07
TTATCGGGAC	1 ± 0.049
GCTGGATGGC	0.993 ± 0.025
CCGGGAAAGC	1.18 ± 0.25
CGTGAAAGCA	1.02 ± 0.067
TTTGCAAAAA	1.06 ± 0.082
TTTAGGGGAC	1 ± 0.012
GATATGTGGT	0.9989 ± 0.004
AGATGGGTGT	1.04 ± 0.041
AAACTGAAAT	1.76 ± 1.1
ATATCGGCAT	1.01 ± 0.035
AGCAGACGGC	1.03 ± 0.024
GGCCTGTTTT	1.09 ± 0.21
GGGGAAGATT	0.986 ± 0.03
TTGGTATATT	1.02 ± 0.016
TGGGGGGGTG	1.01 ± 0.033
GACTTCGAAA	1.63 ± 0.028
AAGCAGCTGT	1.01 ± 0.034
TGATTGTGCA	0.989 ± 0.035
TGCTGAAAGA	1.04 ± 0.028
GTTTGCAAGT	1.011 ± 0.0072
GTGTTGTTGC	0.981 ± 0.0012
ATTCTTGTTC	0.981 ± 0.05
AATTTGTTCT	0.999 ± 0.025
AAAGGAAGAT	0.993 ± 0.055

Sequence	switch fluorescence ratio
ACCGGGTGCA	1.36 ± 0.48
GTTTTCCCGT	1.03 ± 0.027
GTAATTTGTT	1.01 ± 0.014
TATGGAGGGA	0.996 ± 0.021
TTAAGTGTAC	1.03 ± 0.026
CAGTCAGGGC	1.26 ± 0.21
GCATTCGGCT	1.04 ± 0.069
TGATGTTCGA	1 ± 0.028
TAACTGTTCC	1.12 ± 0.11
ACTCTTGTTG	1.01 ± 0.022
ATGGATAATT	1.04 ± 0.011
CGAGCCCTTG	1.027 ± 0.0065
AACAGGGGGG	1.02 ± 0.081
TTCGTGTGGC	0.932 ± 0.02
GGATAGTGTT	0.988 ± 0.016
CTACAAAGGG	1.005 ± 0.0037
AGGGGGGCCT	0.989 ± 0.087
TGTAAGACCC	1.06 ± 0.033
CAGGGCGGAA	1.02 ± 0.019
ACCACAGAGC	1.04 ± 0.051
CAAGGGTGTG	0.988 ± 0.012
AGCGGTATGC	0.9804 ± 0.0073
ATTGCAGGTT	0.965 ± 0.01
TGAGAGGAAG	0.989 ± 0.018
CTAGGTGTG	1.01 ± 0.082

Sequence	switch fluorescence ratio
CAGGGGGGCC	1.03 ± 0.02
ATCGGATTGT	1.012 ± 0.007
GGAGTCGGGG	1 ± 0.012
CGGCTATCTC	1.381 ± 0.011
CACACGTGGT	0.9908 ± 0.0036
GGTGCGGCTT	1.007 ± 0.0072
GTTGCATTAT	1.028 ± 0.0041
AGTCTGCCGG	1.01 ± 0.028
TTCCGGCAAA	1.5 ± 0.7
TCTTTTTCTT	1.01 ± 0.033
ATTTTTTTTT	1 ± 0.026
TGAGTTATG	1.0034 ± 0.00041
GGTGGGAAGA	1.02 ± 0.017
CAACGTAGGT	1.05 ± 0.013
TTTAGGAAAA	1 ± 0.029
TAGCTGCAAA	1.05 ± 0.024
GGGAGTGGTG	1.12 ± 0.17
GTGTCATAGT	0.9923 ± 0.0016
ATTTGGGTGT	1.05 ± 0.02
TACGTATAGG	1.098 ± 0.0028
AGAGGCTGTT	1.03 ± 0.041
AGCATTTTTG	1.024 ± 0.0035
GGGGTTTGTG	0.997 ± 0.037
TGGGTGGTCA	0.987 ± 0.06
ACGATAGGCC	1.03 ± 0.028

Sequence	switch fluorescence ratio
GATTGCTTGA	0.999 ± 0.034
TCGGTTGAAC	1.01 ± 0.031
GCAGCTTGCA	0.993 ± 0.018
GACCTATATT	1.05 ± 0.022
CAAGGAGTCT	1.02 ± 0.035
GGGGTTTGCG	0.973 ± 0.011
CACTCGTGGC	1.01 ± 0.053
AATATATCCG	1.03 ± 0.02
ATTTGGGGGA	0.999 ± 0.029
ATCTATAGTG	0.9651 ± 0.0035
TTTTCAAAAT	1.08 ± 0.13
GGGTTAATTG	0.983 ± 0.017
TGAAATAGGG	1.0312 ± 0.00097
CATGTCGAGC	1.02 ± 0.059
CCAGTTGATA	0.991 ± 0.032
TTGGGATACG	1.18 ± 0.23
GATCGCTAGG	0.984 ± 0.035
TTTAGTTGTA	1.018 ± 0.0077
GCCATAATTA	0.981 ± 0.018
CGAAGGTAGG	0.9843 ± 0.0049
TAAAGCATGG	0.98 ± 0.019
CCACTAGACC	1.14 ± 0.026
TGGGGAACCT	0.96 ± 0.032
GATCAATTAA	0.9942 ± 0.007
TACTGCCAGC	1.08 ± 0.054

Sequence	switch fluorescence ratio
AAAGTTCGGC	1.06 ± 0.024
AGGGAGGGTG	1.02 ± 0.066
AGGGTCGGAC	1.01 ± 0.012
CACGAAGGGT	1.02 ± 0.018
GTATTGCCAG	0.995 ± 0.029
AATCTTCATG	0.997 ± 0.044
GTGTACAAAT	0.9896 ± 0.0041
TTTATGATCG	0.977 ± 0.039
CGATAGATGA	0.993 ± 0.018
ATTTGCGAGG	1.01 ± 0.017
CGCTAGGGGA	1.07 ± 0.041
AGCCTTAATT	1 ± 0.025
CTTGTTAGGG	0.996 ± 0.032
ATTGGTTGTG	0.988 ± 0.035
GGCCGTATGT	1.01 ± 0.011
GATTGTGGGG	0.969 ± 0.015
CCGGATATGT	1.08 ± 0.046
TTTAATGGTT	1.02 ± 0.039
CTATAGAAAT	0.9991 ± 0.0091
CAACGGGGGT	1.03 ± 0.018
GAGTCAATAG	2.98 ± 0.047
TGTTGTTTCG	0.989 ± 0.025
AGTTACGGAC	1.36 ± 0.017
AATGTAGACG	0.997 ± 0.13
TTTGTGGTTC	1 ± 0.039

Sequence	switch fluorescence ratio
GTTATGTCTG	1.03 ± 0.065
ACTTTTTTTT	1.01 ± 0.034
TATTCTAGAG	0.989 ± 0.044
TTGTTAGATG	1.011 ± 0.0066
ATTGTTTTGC	1.009 ± 0.0025
TAAAGGGTTA	0.985 ± 0.014
GTCCAAGGGG	1.04 ± 0.032
CGGATGTTGC	1.03 ± 0.05
GCGACTAGGC	1.03 ± 0.068
GGTTATGTGT	0.964 ± 0.014
CGTGGTTCAG	0.996 ± 0.014
CAGCTATTTA	1.02 ± 0.025
TGATTCTTAG	0.989 ± 0.023
TTAGGGCCGA	1 ± 0.031
CCAACCTGAT	1.31 ± 0.18
ACTGATAGGC	1.18 ± 0.23
AGGGGGCGAG	0.988 ± 0.018
GATAGTTGGG	0.988 ± 0.02
TTGAGAAGGG	1.04 ± 0.04
GTAGTACCGG	1.02 ± 0.028
TGTGAGAGGG	1 ± 0.019
GGAATGGAAC	1.01 ± 0.024
CGCTCTGCGT	1.01 ± 0.033
TTGTCGGGCC	0.964 ± 0.039
GGGGGATTAG	0.992 ± 0.022

Sequence	switch fluorescence ratio
GAGAGGAGTA	0.967 ± 0.037
TATAATAGCT	1.02 ± 0.023
TTAAAAGAGG	1.01 ± 0.014
TTCAGCGGGT	0.983 ± 0.025
TTAACAAGGA	1.018 ± 0.0085
GCTGGAATGG	1.06 ± 0.015
GGATGTTGTG	0.974 ± 0.04
TTTATTCTTT	1 ± 0.021
AGTTTTATCC	1.006 ± 0.0052
TCATTTATGG	0.999 ± 0.023
TGGGCGAAAA	0.974 ± 0.045
ACGGGGCATC	1.07 ± 0.013
CTTTTTAGTC	1.03 ± 0.013
ACATTTAATT	0.983 ± 0.013
CATGCTTTGT	0.9924 ± 0.0069
CGGGGGGACA	0.968 ± 0.041
TTTACCCTAT	1.06 ± 0.015
ATTGTCTTTG	0.982 ± 0.018
GGCACTGGTA	0.981 ± 0.022
TAAAGGTTTT	0.974 ± 0.04
GTTACTTAGC	1.04 ± 0.082
TAGGGGAAGG	1.03 ± 0.05
AATTAGATTC	0.994 ± 0.055
GCTTGAGGGG	1.012 ± 0.0022
GATTGCGCAT	1 ± 0.03

Sequence	switch fluorescence ratio
GTTTCTTTAC	0.988 ± 0.058
GTGGGGTTGT	0.973 ± 0.022
CGAGATCAAG	0.971 ± 0.013
TGGGAAAAAG	0.972 ± 0.039
GTTTTGTCAA	1.02 ± 0.0038
CCGTTGGTTT	0.9937 ± 0.0088
TAAACAGTGA	1.01 ± 0.038
CTAGACAGTT	0.997 ± 0.02
TTTGGTCCTT	1.029 ± 0.0088
TTAGGTGTTT	1.54 ± 0.69
ATTCGATTTT	0.999 ± 0.019
CCCTATTTTT	1.01 ± 0.035
GGGCAAGACA	1.23 ± 0.018
TTAGGTTGTA	0.974 ± 0.025
TACACCGCGG	1.02 ± 0.027
AGTGGGGTG	1.03 ± 0.026
TTAATATTTT	0.985 ± 0.026
ACACGGGGGG	1.04 ± 0.022
GGGGATTGTT	1 ± 0.033
TTGCATACGT	1.61 ± 0.76
TGAAAATGCG	1.01 ± 0.057
AGAGTGGGGC	0.9817 ± 0.0089
CTTGGCTCTT	0.985 ± 0.01
GATTCTTAAG	1 ± 0.022
TAGTGTTTCT	1.01 ± 0.018
